Test: soluble on expression in E. coli; label from the status in PepcDB or PDB records

Sequence | soluble on expression in E. coli
MAHHHHHHMESISRTYENIKNDKNNLSNAENENNGNFKAPPNGTVCCPEDLKMYSTIQLNQEIEISKNPFPLHEINKKNDIPLCAQEFSDLTDPLYIKKICLEKVPEWNHFTEDNLRVKQILSGLTNQLFEVGLKEETANNYNSIRTRVLFRIYGKHVDELYNTISEFEVYKTMSKYKIAPQLLNTFNGGRIEEWLYGDPLRIDDLKNPTILIGIANVLGKFHTLSRKRHLPEHWDRTPCIFKMMEKWKNQLFKYKNIEKYNCDIHKYIKESDKFIKFMKVYSKSDNLANTIVFCHNDLQENNIINTNKCLRLIDFEYSGFNFLATDIANFFIETSIDYSVSSYPFFEIDKKKYISYENRKLFITAYLSNYLDKSLVVPTPKLIDEILEAVEVQALGAHLLWGFWSIIRGYQTKSYNEFDFFLYAEQRLKMYDDQKEYLISNNIIKGYD | soluble
MAHHHHHHMESKVPLFLYFMVTNHPEVKQYTELLCHQVDQANRRLKDENFGDVYQEFGKDAGLAIKLGMVDCLQEPGLMAKFHIDPHMFPLIYFVRNKVFCDKMVGVVTESHVKEAVEAFIDDAKLESKSESEGASLFQKVRRQDDDDENAMTLIAAAHGKMQAGDPAKGKQLFEKALRMSMEDMEVVKKRYGVPNKKMTPELWAKLKREPCYNSAPEALCGLAMCAMASKQRDEAFRLAARVREEFPFAPQDMRGVAEAVVRIELIQVVDYDPDTDNYMRLLKFDELVSEPAQFYKHHLKRAVAFYVEGVAGQAIEECIRLIRAEPKLLSALKEGGIVPNDLRLGPTAVTPARQVIRAIFEALGPTNERVEKGRKLLQLYL | not soluble
MAHHHHHHMFAFLNVAFMAAIRRKLKELKPPARRQSHRCAPEVYSQEGPTRHYFLPSVERIDKKTCISHRLLYIPEVENFPLVDGFFFVKSNPMTLVGLRMTTAGEHHTAASTVRQFTECLAAYFNGWEELSREMSWEMIYVQHADSTPMNDWQRCDVDNSNNLTEEGREIAAFWNEKVRQYQVSI | not soluble
MAHHHHHHMFPGEQDITGSQLAEYVREQVQASANLVVYVEDTHCDVDTIGLRRLHATIGGTAVFSGYDLYRRSKYEKVEQGLDELWTSNVVLEASAIGSLSALCDNVRMVRRHEGCTIALAPQSLMHNVAFAVHLAVGVGARFLCVGGLMDVVQCEVVSQYLYVQDELEQSRLLLEEAPKPPCAVLPDAPTDTVPEIKRRLDKKKRKK | not soluble
MAHHHHHHMGAEHSTGMTKVLMPQFSTKRQTGPFLSPVERVTASGQSVVIECGDGVSRVDDGTAVVELFALDSKATEEDAMVEAFGEFAITKDDLIGRTRSSLKRGRVEEDEDLPCYFLAPRRRSCSVGGHNSADADSVLASPSRWGAVETDADGAMWRLLQEYDELLCVEAIGDATEDLYCYPDHRKDDEFDSNAEDFSGNDYPDDADERSGESAERAEEEASGFSTERRGGRVASHSTYGMFCEEGYSERSLSSVWNSDG | soluble
MAHHHHHHMGGYFSKDLEECLRNEKRNLNRSIRELEREIFKLTNEQSKIEKNIKINAKRNGDTSTVRTLARDYISIKKTIAKYNKLKSHLFSMKVKLQSVKSSEQLGRSLTEINRVIKRVNGYIKLTSLNKSINDFHKENNEVSLKEDMLDDLFEAFDYDSQMVAEEEELVTKVLEGMGIQMNAKLEDIPSPGELPKTQVDHLGVSDLEARINNLRLGKS | soluble
MAHHHHHHMGIGYSQPLTVDTAGPPSSFSCARTVAHVAALTIQRSTQFLGGSTPPPSQSHTHAHHRKKHSHVRSEIACWASATLPSHSNLQRLRDPTTAVNRHSKRCKGEMVVRRMPSDGAGSHATVSENRAPSKRKLRGGFLFASSKWREHLTCNNQNGDTEDHWGLGEGEVRFHSWERILALSVCPLFLLPDGRDSGVTALCGHTEGHEGKERTAVGIMLRTVVKMGDESELTKGGSRGN | soluble
MAHHHHHHMGIVRSRLHKRKITGGKTKIHRKRMKAELGRLPANTRLGARRVSPVRARGGNFKIRALRLDTGNFAWASEAIAHRVRLLDVVYNATSNELVRTKTLVKNCIVAVDAAPFKRWYAKHYGIDLDADKKSTKAAVAAEKKGRKSAHAAADKYDVNKASPKLQREWTRRRRNHRVEKAIADQLREGRVLARITSRPGQSGRADGILLEGAELQFYLKRLEKKKK | soluble
MAHHHHHHMGKLSKDRRDIYYRKAKESGYRARSSFKLIQINEKFGILKLFKPDIYNCNNEKDLINIYNEHYCYNIVDLCAAPGSWSQVLKNICLYNYYQILYMINKYNNNENIKNIQHEEFLNKFSLYINYNEELENKIKNLKIKCSNIKEPNIVAVDLQEIGNMNYVKIIQGDITKMSTIDKILKCMNNKINSDEENVNVFYNMEQQKKENNFSYAHTVVSDGAPDITGMNDIDEFIQSQLILSSLKVCCSVLKVGGNFISKIFRGEHTGLLILHLNKFFQRVYICKPQSSRNKSLESFLVCLNFSLPRSNIISMNNHNAENKINDKYLSEEQMRKFHAQLITYKDKDDQESEEKKENYNSHDNIDYNLCHTTKHNKNISDEIETKEVSSPYEHNNIVENNVTPNSDMLKNINKIINEYDNDKNNLDIFNFYCSDSDEEIKYFNSEDEEVVNNYISSESFMSNKLFSFIATDNYYDSDKSYLLPENYVRHEPQLMPLKPPYMLSLQKKRQEVKK | not soluble
MAHHHHHHMGTLEAQTQGPGSMLYIIGLGLYDEKDITVRGLEAVKSCDLVFLEHYTAILQCDVAKLEEFYGKKVIIGDRDLVETEADQILEPAKTKNVALLVVGDVYGATTHSDIFVRCQKMGIEVKVIHNASIMNAIGCSGLQLYRFGQTVSVCFWSEHWRPSSYYPKIKINRDNNMHTLVLLDIKVKERSEESIIKGRDIFEPPRYMTINQCIEQLLEVEKEQHLGVYDEDTMVVGMARVACADQKIVYGKMKDLLHYDFGAPMHCLLIPAPQVDDPELDQLEYFKYKPE | soluble
MAHHHHHHMGTLEAQTQGPGSMSDIPSDLHYTAEHEWIRRSGDDTVRVGITDYAQSALGDVVFVQLPVIGTAVTAGETFGEVESTKSVSDLYAPISGKVSEVNSDLDGTPQLVNSDPYGAGWLLDIQVDSSDVAALESALTTLLDAEAYRGTLTE | soluble
MAHHHHHHMGTLEAQTQGPGSMTYETILVERDQRVGIITLNRPQALNALNSQVMNEVTSAATELDDDPDIGAIIITGSAKAFAAGADIKEMADLTFADAFTADFFATWGKLAAVRTPTIAAVAGYALGGGCELAMMCDVLIAADTAKFGQPEIKLGVLPGMGGSQRLTRAIGKAKAMDLILTGRTMDAAEAERSGLVSRVVPADDLLTEARATATTISQMSASAARMAKEAVNRAFESSLSEGLLYERRLFHSAFATEDQSEGMAAFIEKRAPQFTHR | soluble
MAHHHHHHMHLLHDFKNIYCLLPSDYKNFLQKIRTLPCSVNKNMQGEKEIYILKKYMKMLNYEFITFIHGPYVLHICDPFYKIYLEWENGWKLYPLYQQNAERHFRENKITHLRKEGFSEILICHDAFANCPSDEEKMNYLSSVLQRTKFSKCSSIICGPAAIAPPPVVSPDIYL | not soluble
MAHHHHHHMHMNNYHYNNYNVNFNPYNCGVVQESEKKNVGNVNNKVVLQKNYSNEYEMKYKEENKNNKINYLENLLNEPTAKEKKIKEEKTNILSIIEAPTVIEEMRIKKFQKKDDSVKIICPYLTKKVCQKHNKECNKVHFKKIISEHTDVSLGDCSYLDTCRHIETCKFVHYAVDKDDQQMNMNTQENLSQSKLSFSSNIKENVYGPQWIRCDLRNFDLSIFNKYVSVVMADPPWDIHMDLPYGTMTDNEMKLLPVQLIQDEGMIFLWVTGRAMELARECLQIWGYKRVEEILWVKTNHLQRIIRTGRTGHWLNHSKEHCLVGIKGNPIINRNIDCNVIVSEVRETSRKPDEIYSLIERLCPQNLKIELFGRPHNCRSNWITLGNQLNGVVLHHPQIKERYNKVATQFNLPLCEK | not soluble
MAHHHHHHMHTDDKQAQRYPRTSDAARVHSTLRVGQNTSDKVPYGRLSSQSGPGTPRGDLFPPSNGLSKVEGEETPAAGAWQYPSEPMATPNTRSVQLNGALPVKNEEGETKCSGDAIREEGTKDGGDGVIIGIDAAVEAGVLVANEESGKEDENRESNVNSTPCASGTNETIATATPTLSNATAASVVLTPAVPASTGLRASRRLLDFTGSTNVSNGPRAASRLFDVKPVGGGAQAASQGVGFLRLSKTVPSAASQAVSARMRTSRKNGPTLSATSRGHSSTAHENLPCRNDYTSLRLKEQRRRELYAWNEELRRQDKSDMSADAV | not soluble
MAHHHHHHMIPHICVNAANYSHTQFEECLTHMCDLSEELSAFKRTAVSLKRQATGDAETSKLALQYMEEALEKVLHVTQGVKEGNKTIGTAAAVKKSVIEAKIASDIADEEASKVERKLDKATRDAGNAEKNLQRILIYTARKACSSEGISSQDEEVKEAQCNVSTEIVYSCTRRPLKIKSDTLRKTYERLKSFTRTPNKTINEHLPKCHMWTELLEPAVASLTDMEKSASVARAYRNQVIKARGEAQQAAWTVGVTVQDVDGLDEVSEEDDFALAPVVLVAVLIVGAVLIDQHP | not soluble
MAHHHHHHMKENYMIRHLFKKYGLKCYNSMSKGLLSNIRNGNSIVLYEKNVNKNLMNLLYKKHYNTYKNRVFNSAMYNNTPSNYMNNPENNNMNHLQNNSNYKYENPNNYYQPKYNNNLNNETNENNTTYQYFSIFGSTAMCLIKPIFPDYITNKNKVTIYGKGGFQFVFMRKQSNSNKYDKNNKMNIFIKINSLSNVLSLNDVEKLKNPIIIKGSNNNYLTIDKHKEKKDHIVIKYKYQPSNSPENNFNDMNNMDTDINENMIINDVNDEKRNNFEELHVSFSFSEFLLFQKAANLLLPQLIGWAKQY | not soluble
MAHHHHHHMKKASKNSNYHGLEKSLRRRGGKIKTIYEKYKDIDFQNIIDEKIKYVWNYINNIDDIISDEEFLKEEIKQKLEKKQSLKKNDDFDEIIYYNKNVKNLINIQKVRKALYHFNIKVDMEDIMHMFLYYTNQDYFLKFIQNNIYSKNYVERKMDKYKFTSININNLYINYEMFKFIFLNIDMNIEQNGQMW | not soluble
MAHHHHHHMKKRTPLVGKRSYFTSLYDTKTEKTKLISEMDDLYDHILTSNWNDSVHLVLNVSIWEGILHSIEARIKPYEQDEDILKKKKMINEMFDVLFILEDLRDHVNELLEQSSRASGLAGTYILASFKIENMVEHIEFLKAKYDELLLKYPLYKYQIDMVLGKGLALLRQRYTFEWRHMHDFFF | not soluble
MAHHHHHHMKLPYAKLEKHSRPVRCVHAEYGCTMLFCSVRCRQAGWSRFHFAGCPGAMMSDQRDAYDEFIHHDWEYRGVDYSDTVFLAFRFVCMAVTNIRLHRQSLELAYRPIAQLIKAPLSFFHFTYLFYREEADSTEKKGRGEKQIEKLRLIRWEAFRKFRATHMSTTENDTTDDFLATGMTLLGRILRFTQEECTLFTVARWSELLGAVLLNGQERSPPSNYDRLKELVRRLPCGESTMDAFEQEVQMAGNELQHLRQSSRGQGVYTVGCLFNHSCEPNLQVVYSESGDETLSVVALRDIEPGEELCISYIDESLSYPERQQELYEHYLFFCQCPKCEREAAAWEPIEPCEEVLSSAYTFSQLY | not soluble

Reference: the DeepSol protein solubility set
